In one data set the target is T1, ParBm (Thermus thermophilus HB27, UniProt Q746H2 1-297).
T1 sequence: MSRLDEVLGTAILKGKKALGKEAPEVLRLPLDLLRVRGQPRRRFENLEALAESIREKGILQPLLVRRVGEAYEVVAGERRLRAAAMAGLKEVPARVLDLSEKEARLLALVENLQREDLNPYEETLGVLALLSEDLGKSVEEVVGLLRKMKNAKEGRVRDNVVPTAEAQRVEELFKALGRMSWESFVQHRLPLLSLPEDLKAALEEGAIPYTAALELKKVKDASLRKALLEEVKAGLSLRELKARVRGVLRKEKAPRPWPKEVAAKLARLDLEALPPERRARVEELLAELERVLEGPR
In words: EMSA; poly(dI-dC); WT competitor competes much better than mutant; 50 mM KCl, 10 mM Tris-HCl pH 7.0, 1 mM EDTA, 1 mM DTT, 4% glycerol, 0.02 ug/ul poly(dI-dC), 25 ul, 15 pmol FAM probe, 0 or 200 pmol ParB (competition), 25 C 30. As to conditions: protein: recombinant; tags: His tag implied (pET21a, Ni-IDA); chain copies: 2; blunt. (Mobility shift assays separate free from complexed probe on a gel.)

In another data set the target is T2, ParBc (Thermus thermophilus HB27, UniProt Q72H91 1-269).
T2 sequence: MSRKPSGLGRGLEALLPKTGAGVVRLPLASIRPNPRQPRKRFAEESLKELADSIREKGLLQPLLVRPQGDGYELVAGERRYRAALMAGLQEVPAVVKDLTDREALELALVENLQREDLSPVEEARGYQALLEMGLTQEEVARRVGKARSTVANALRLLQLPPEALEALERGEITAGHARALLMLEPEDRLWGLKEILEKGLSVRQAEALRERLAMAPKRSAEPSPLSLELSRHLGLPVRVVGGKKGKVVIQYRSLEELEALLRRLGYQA
Described as above. As to conditions: protein: recombinant; tags: His tag implied (pET21a, Ni-IDA); chain copies: 2; blunt.

B1: WT parSm 18-bp probe (dsDNA)
DNA 1: GCAAGGACGCGTCCTTCA
DNA 2: TGAAGGACGCGTCCTTGC
Turning to B1, the binding result with ParBm is listed as “binds”.

B2: WT parSc 25-bp probe (dsDNA)
DNA 1: TGTTTCCCGTGAAACATCAGGCGCC
DNA 2: GGCGCCTGATGTTTCACGGGAAACA
As to B2, the binding result with ParBc is recorded as “binds”.

Source of the values: publication PMC4409726, “Characterization of chromosomal and megaplasmid partitioning loci in Thermus thermophilus HB27”.
